Data on three molecules can be found in patent US20100204100A1, “BIOLOGICAL AGENTS ACTIVE IN CENTRAL NERVOUS SYSTEM” (THE JOHNS HOPKINS UNIVERISTY, priority 2007, published 2010).

The chains are these.
B1: PSD-95 PDZ2: Control peptide containing the same sequences as Tat-PSD-95 PDZ2 but without Tat PTD (protein)
chain: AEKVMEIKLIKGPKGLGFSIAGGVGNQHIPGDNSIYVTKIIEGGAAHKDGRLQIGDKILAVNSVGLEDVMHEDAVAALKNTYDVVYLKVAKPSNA
B2: Tat-PSD-95 PDZ2: His-tagged fusion peptide: HIV Tat minimal transduction domain (residues 47-57) fused to the second PDZ domain of PSD-95 (protein)
chain: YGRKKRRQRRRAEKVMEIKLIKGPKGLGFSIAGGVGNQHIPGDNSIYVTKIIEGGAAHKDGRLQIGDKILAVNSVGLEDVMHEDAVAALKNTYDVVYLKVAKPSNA
B3: mutated Tat-PSD-95 PDZ2: Control fusion peptide: Tat-PSD-95 PDZ2 with three sites critical for NMDAR/PSD-95 interaction mutated (K165T, L170R and H182L) (protein)
chain: B2 chain with K22T, L27R, H39L

Residue numbers refer to the chain shown, from its start. Names may count otherwise. “Also recorded” adds a separate entry of the source.

In the first assay the test system is interaction between NR2A/2B and PSD-95. The assay can be described thus: In vivo binding assay (co-immunoprecipitation) from spinal cord homogenates of treated mice. The arrangement: species or system mouse. The conditions noted are these: 8 mg/kg intraperitoneal. On the procedure: In Vitro and In Vivo Binding Assays. […] Membrane-bound proteins from the spinal lumbar enlargement segments were extracted as described previously (Tao, et al., 2003a). For in vitro binding experiments (GST pull-down), the solubilized membrane fraction and GST fusion peptide were first preincubated with different concentrations of Tat-PSD-95 PDZ2 at room temperature for 30 min. Then the membrane fraction was mixed with the GST fusion peptide at room temperature for 1 h. The resin was washed five times with washing buffer (PBS plus 500 mM NaCl and 0.1% Triton X-100) and then boiled in 1×SDS-PAGE sample buffer to elute the bound proteins. After being separated by electrophoresis, the proteins were detected by immunoblotting with anti-GST antibody (Santa Cruz Biotechnology, Santa Cruz, Calif.) and anti-NR2B antibody (Upstate Biotechnology, Lake Placid, N.Y.). For in vivo binding experiments (co-immunoprecipitation), 5 μg of the affinity-purified rabbit NR2A/2B antibody (Chemicon, Temecula, Calif.) was incubated with 100 μl of protein A-Sepharose slurry for 1 h, and the complex was spun down at 2000 rpm for 4 min. The solubilized membrane fraction (500 μg) from the different groups of treated mice as mentioned-above then was added to the Sepharose beads, and the mixture was incubated for 2-3 h at 4° C. The mixture was washed once with 1% Triton X-100 in immunoprecipitation buffer [containing (in mM): 137 sodium chloride, 2.7 potassium chloride, 4.3 disodium hydrogen phosphate, 1.4 potassium dihydrogen phosphate, 5 ethylene glycol tetraacetic acid, 1 sodium vanadate, 10 sodium pyrophosphate, 50 sodium fluoride, 0.1 phenylmethylsulfonyl fluoride, and 20 U/ml Trasylol], twice with 1% Triton X-100 in immunoprecipitation buffer plus 300 mM sodium chloride, and three times with immunoprecipitation buffer. The proteins were separated by SDS-PAGE and detected by NR2A/2B or PSD-95 antibody (Upstate Biotechnology, Lake Placid, N.Y.). As a positive control (input), 50 μg of the solubilized membrane fraction was loaded onto the gel. […]
As for B1, the “effect on interaction between NR2A/2B and PSD-95, co-immunoprecipitation” value (from here on “effect … co-immunoprecipitation”) is “neither mutated Tat-PSD-95 PDZ2 (8 mg/kg) nor PSD-95 PDZ2 (8 mg/kg) had an effect”.
Consider B2, for which the “effect … co-immunoprecipitation” value was “markedly disrupted; also recorded: markedly blocked”.
Consider B3, for which the “effect … co-immunoprecipitation” value was “no effect; also recorded: neither mutated Tat-PSD-95 PDZ2 (8 mg/kg) nor PSD-95 PDZ2 (8 mg/kg) had an effect”.

The subject of the next assay is CFA-induced inflammatory pain behaviors. The assay can be described thus: CFA-induced inflammatory pain behaviors, paw withdrawal threshold (von Frey filaments). Type of assay: in vivo, mouse. The conditions noted are these: intraperitoneal; Tat-PSD-95 PDZ2 2, 4, 8 mg/kg, control peptides 8 mg/kg; development and maintenance phases; vs vehicle. On the procedure: Intrathecal Injection of Tat Fusion Peptides. Intrathecal injection was performed in unanesthetized mice as previously described (Hylden and Wilcox, 1980; Tao, et al., 2003b; Tao, et al., 2004). In brief, the mouse was held firmly by the pelvic girdle in one hand, while a 10-μl Luer tip syringe with a 30 gauge 0.5-inch needle was held in the other hand at an angle of about 20° above the vertebral column. The needle was inserted into the tissue to one side of the L5 or L6 spinous process so that it slipped into the groove between the spinous and transverse processes. The needle was then moved carefully forward to the intervertebral space as the angle of the syringe was decreased to about 10°. […] The injection volume was 5 μl. The mice, assigned randomly to the experimental groups of 6-8, were given intrathecally Tat-PSD-95 PDZ2 or control peptide (mutated Tat-PSD-95 PDZ2 or PSD-95 PDZ2 without Tat PTD) 30 min before behavioral testing. Behavioral Analysis. Mechanical sensitivity of the mice was measured with von Frey filaments (Stoelting, Wood Dale, Ill.) as described previously (Yang and Gereau, 2003). Mice were placed in Plexiglas testing boxes with a 1×1 cm^2 wire-mesh grid floor and habituated for 3 h before experiments. Each von Frey filament was applied to the mouse hind paw in ascending order until it bent at approximately 30° for about 3 s. The smallest filament that evoked a paw withdrawal response was taken as the mechanical threshold (paw withdrawal threshold). Similar sites were selected for measuring mechanical thresholds in all tested animals, and the thresholds were measured at approximately the same site throughout the experiment for each individual animal. Two to three measurements were made before CFA or fusion peptides injection, and the average was calculated as the baseline. Established inflammatory pain behaviors were induced by intraplantar injection of CFA solution (20 μl, 1 mg/ml). To observe the effect of Tat-PSD-95 PDZ2 on the development of CFA-induced established inflammatory pain, the mice were given intraperitoneally Tat-PSD-95 PDZ2 or control peptide (mutated Tat-PSD-95 PDZ2 or PSD-95 PDZ2 without Tat) 2 h before CFA injection or intrathecally these peptides 1.5 h after CFA injection (development protocol); on the other hand, to observe the effect of Tat-PSD-95 PDZ2 on the maintenance of CFA-induced established inflammatory pain, the mice were given intraperitoneally these peptides 20 h after CFA injection or intrathecally these peptides 23.5 h after CFA injection (maintenance protocol). Behavioral measurements were conducted 2 h after CFA injection for the “development protocol” and 24 h after CFA injection for the “maintenance protocol”. The effect of Tat fusion peptide on CFA-induced established inflammatory pain behaviors was expressed as % of baseline.
B1: the “effect on CFA-induced decrease of paw withdrawal threshold, ipsilateral side” value (from here on “effect on CFA-induced decrease”) was “no effect”.
With B2, the “effect on CFA-induced decrease” value is “significantly inhibited; also recorded: dose-dependently inhibited”.
Take B3: the “effect on CFA-induced decrease” value is “no effect”.

Still in this assay, the particulars now being: intrathecal; Tat-PSD-95 PDZ2 2.5, 5, 10 μg/5 μl, control peptides 10 μg/5 μl; vs vehicle.
Turning to B1, the “effect on CFA-induced decrease” value is listed as “no effect”.
For B2, the “effect on CFA-induced decrease” value is recorded as “significantly inhibited; also recorded: dose-dependently inhibited”.
Turning to B3, the “effect on CFA-induced decrease” value is listed as “no effect”.
